Assay results as given in patent US20250346679A1 (INVOX PHARMA, published 2025).
Residue numbers refer to the chain shown, from its start.

Key:
[1] = molecular target: mouse CD137, cell-surface (mouse, UniProt P20334 24-256); assay: cell-based or functional assay
[2] = molecular target: T1, human CD137, cell-surface (human, UniProt Q07011 24-255); assay: cell-based or functional assay
[3] = molecular target: T2, cynomolgus CD137, cell-surface (cynomolgus, UniProt Q07011 24-255 (human entry)); assay: flow cytometry on DO11.10.cCD137
T2 construct: also called DO11.10.cCD137; CD137 on cynomolgus T cells
T2 chain: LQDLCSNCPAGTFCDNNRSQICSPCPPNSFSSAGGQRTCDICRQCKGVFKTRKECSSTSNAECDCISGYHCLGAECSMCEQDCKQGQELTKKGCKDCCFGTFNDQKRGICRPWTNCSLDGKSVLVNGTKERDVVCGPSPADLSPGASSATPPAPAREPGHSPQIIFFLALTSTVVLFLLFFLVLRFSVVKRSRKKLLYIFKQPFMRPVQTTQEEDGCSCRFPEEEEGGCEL
Procedure: (§1) Non-specific binding was also assessed by testing binding to DO11.10 cells lacking CD137 expression.
(§2) Briefly, DO11.10, DO11.10.hCD137 or DO11.10.cCD137 suspensions were prepared in FACS buffer (DPBS containing (Gibco, 14190-094) containing 0.5% BSA (Sigma, A7906)) and seeded at 1×10⁵ cell/well in 100 μl in round bottomed 96-well plates (VWR, 734-1797). […] The washed cells were resuspended in the diluted antibody mixture, incubated at 4° C. for 30 minutes, and then washed once in FACS buffer. […] Dead cells were excluded and the fluorescence in the APC channel (638 nm 660/20) was measured. The geometric mean fluorescence intensity (GMFI) values were plotted vs the log concentration of antibody and the resulting curves were fitted using the log (agonist) vs response equation in GraphPad Prism.

[4] = molecular target: T1, human CD137, cell-surface; assay: flow cytometry on DO11.10.hCD137; DO11.10 cells overexpressing human CD137 (DO11.10.hCD137)
Procedure: as §1, §2

[5] = molecular target: human PD-L1, cell-surface (human, UniProt Q9NZQ7 19-290); assay: cell-based or functional assay
hPD-L1-rCD4-His [6] = molecular target: T3, hPD-L1-rCD4-His (human); assay: SPR
T3 construct: also called human PD-L1-rCD4-His; hu-PD-L1-rCD4-His

Cyno PD-L1-rCD4-His = molecular target: T4, Cyno PD-L1-rCD4-His (cynomolgus, UniProt Q9NZQ7 19-238 (human entry)); assay: SPR
T4 construct: also called cynomolgus PD-L1-rCD4-His; not shown: rat CD4 domains 3 and 4 and His tag

hPD-L1-rCD4-His [7] = molecular target: T3, hPD-L1-rCD4-His; assay: SPR, culture supernatants
FcgRIIB on CHO cells = molecular target: T5, FcgRIIB on CHO cells (UniProt P31994 43-310); assay: flow cytometry on CHO cells over-expressing FcγRIIB, anti-human IgG AF-488 detection
T5 construct: whole, on cells; also called CHO.FcγRIIB
T5 sequence (looked up): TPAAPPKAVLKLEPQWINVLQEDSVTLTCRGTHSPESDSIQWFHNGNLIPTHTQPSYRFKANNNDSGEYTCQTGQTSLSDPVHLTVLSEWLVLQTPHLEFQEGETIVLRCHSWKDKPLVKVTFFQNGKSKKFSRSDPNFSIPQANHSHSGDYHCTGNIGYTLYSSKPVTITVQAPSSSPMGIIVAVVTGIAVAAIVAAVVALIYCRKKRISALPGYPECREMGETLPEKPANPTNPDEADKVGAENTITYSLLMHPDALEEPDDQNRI
Source text: (§3) However, in order to circumnavigate potential off-target effects such as systemic CD137 activation due to crosslinking by Fcγ receptor binding and to decrease the possibility of inducing ADCC of immune cells, for example T cells, that express both targets, it was decided to decrease the Fcγ receptor binding ability of the anti-human CD137/PD-L1 mAb² by introduction of a LALA mutation in the CH2 domain (see Example 3.2 for details on the LALA format).
(§4) Briefly, CHO.FcγRIIA.131H, […], CHO.FcγRIIIA.158F, CHO.FcγRIIIA.158V, CHO.FcγRIIB, or CHO.WT suspensions were prepared in FACS buffer (DPBS containing (Gibco, 14190-094) containing 0.5% BSA (Sigma, A7906)) and seeded at 1×10⁵ cell/well in 100 μl in round bottomed 96-well plates (VWR, 734-1797). […] The washed cells were resuspended in the diluted antibody mixture, incubated at 4° C. for 30 minutes, and then washed once in FACS buffer. […] The geometric mean fluorescence intensity (GMFI) values were plotted vs the log concentration of antibody and the resulting curves were fitted using the log (agonist) vs response equation in GraphPad Prism.

[8] = molecular target: T6, FcgRIIA 131H on CHO cells (UniProt P12318 34-317, limits assumed); assay: flow cytometry on CHO cells over-expressing FcγRIIA 131H, anti-human IgG AF-488 detection
T6 construct: whole, on cells; also called CHO.FcγRIIA.131H
T6 sequence (looked up): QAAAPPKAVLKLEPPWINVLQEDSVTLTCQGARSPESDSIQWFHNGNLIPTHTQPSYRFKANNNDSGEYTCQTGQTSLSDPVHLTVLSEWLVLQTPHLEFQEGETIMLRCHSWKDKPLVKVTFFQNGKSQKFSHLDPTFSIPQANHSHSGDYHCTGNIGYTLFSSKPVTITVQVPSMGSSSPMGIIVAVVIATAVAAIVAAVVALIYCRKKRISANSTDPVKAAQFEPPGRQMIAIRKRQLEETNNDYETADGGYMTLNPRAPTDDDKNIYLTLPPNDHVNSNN
Source text: as §3, §4

[9] = molecular target: T7, FcgRIIIA 158F on CHO cells (UniProt P08637 17-254, limits assumed); assay: flow cytometry on CHO cells over-expressing FcγRIIIA 158F, anti-human IgG AF-488 detection
T7 construct: whole, on cells; also called CHO.FcγRIIIA.158F
Source text: as §3, §4

[10] = molecular target: T8, FcgRIIIA 158V on CHO cells (UniProt P08637 17-254); assay: flow cytometry on CHO cells over-expressing FcγRIIIA 158V, anti-human IgG AF-488 detection
T8 construct: whole, on cells; also called CHO.FcγRIIIA.158V
Source text: as §3, §4

T3 sequence (chain, as listed by the source): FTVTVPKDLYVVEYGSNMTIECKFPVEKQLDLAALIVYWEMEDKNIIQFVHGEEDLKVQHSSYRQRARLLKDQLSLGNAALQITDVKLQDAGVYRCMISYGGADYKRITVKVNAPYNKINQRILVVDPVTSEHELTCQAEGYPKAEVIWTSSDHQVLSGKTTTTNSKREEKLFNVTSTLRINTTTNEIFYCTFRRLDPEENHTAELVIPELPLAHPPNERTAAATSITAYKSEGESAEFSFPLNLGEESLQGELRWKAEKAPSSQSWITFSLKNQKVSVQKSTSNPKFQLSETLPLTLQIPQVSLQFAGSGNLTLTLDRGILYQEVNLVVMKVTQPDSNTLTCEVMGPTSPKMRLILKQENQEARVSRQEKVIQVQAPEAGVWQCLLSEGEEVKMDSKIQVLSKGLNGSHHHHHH
T4 sequence (Q9NZQ7 other isoform, or with tags, fused parts or gaps): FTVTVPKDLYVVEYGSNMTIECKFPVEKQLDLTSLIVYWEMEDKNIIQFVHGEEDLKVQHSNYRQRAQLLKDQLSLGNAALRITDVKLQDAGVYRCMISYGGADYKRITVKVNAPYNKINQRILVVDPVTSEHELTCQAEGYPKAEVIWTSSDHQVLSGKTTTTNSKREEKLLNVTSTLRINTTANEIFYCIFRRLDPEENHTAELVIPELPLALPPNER
mouse CD137, cell-surface, sequence (P20334 24-256): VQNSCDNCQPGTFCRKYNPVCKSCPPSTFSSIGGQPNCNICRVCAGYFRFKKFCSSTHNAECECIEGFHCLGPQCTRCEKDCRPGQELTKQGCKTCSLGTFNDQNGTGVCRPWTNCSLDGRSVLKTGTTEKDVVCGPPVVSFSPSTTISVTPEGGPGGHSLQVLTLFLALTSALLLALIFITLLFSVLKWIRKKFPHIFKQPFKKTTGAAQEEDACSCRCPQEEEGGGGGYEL
T8 sequence (P08637 17-254 F176V limits assumed): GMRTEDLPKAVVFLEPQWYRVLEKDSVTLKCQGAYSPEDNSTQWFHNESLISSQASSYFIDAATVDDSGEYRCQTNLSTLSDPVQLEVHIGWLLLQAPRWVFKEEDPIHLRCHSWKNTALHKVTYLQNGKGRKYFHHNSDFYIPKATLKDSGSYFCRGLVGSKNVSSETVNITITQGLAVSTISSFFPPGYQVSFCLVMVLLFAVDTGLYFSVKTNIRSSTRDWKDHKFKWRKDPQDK
T7 sequence (P08637 17-254 limits assumed): as the sequence (P08637 17-254 F176V limits assumed) above, with V160F counted along it
human PD-L1, cell-surface, sequence (Q9NZQ7 19-290): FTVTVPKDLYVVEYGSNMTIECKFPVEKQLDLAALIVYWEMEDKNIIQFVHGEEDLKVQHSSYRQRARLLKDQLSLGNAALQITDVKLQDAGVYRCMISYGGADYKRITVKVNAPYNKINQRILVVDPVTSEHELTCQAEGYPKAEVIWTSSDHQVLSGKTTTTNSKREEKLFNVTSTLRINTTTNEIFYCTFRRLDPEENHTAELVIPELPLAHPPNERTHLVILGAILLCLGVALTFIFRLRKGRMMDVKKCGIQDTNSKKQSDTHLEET

B1: FS22m-063-AA/HeID1.3 (bispecific antibody, human IgG1, kappa, L234A L235A)
heavy: QVQLQESGPGLVRPSQTLSLTCTVSGSTFSGYGVNWVRQPPGRGLEWIGMIWGDGNTDYNSALKSRVTMLVDTSKNQFSLRLSSVTAADTAVYYCARERDYRLDYWGQGSLVTVSSASTKGPSVFPLAPSSKSTSGGTAALGCLVKDYFPEPVTVSWNSGALTSGVHTFPAVLQSSGLYSLSSVVTVPSSSLGTQTYICNVNHKPSNTKVDKKVEPKSCDKTHTCPPCPAPEAAGGPSVFLFPPKPKDTLMISRTPEVTCVVVDVSHEDPEVKFNWYVDGVEVHNAKTKPREEQYNSTYRVVSVLTVLHQDWLNGKEYKCKVSNKALPAPIEKTISKAKGQPREPQVYTLPPSRDEPYWSYVSLTCLVKGFYPSDIAVEWESNGQPENNYKTTPPVLDSDGSFFLYSKLTVMNYRWELGNVFSCSVMHEALHNHYTQKSLSLSPG
light: DIQMTQSPASLSASVGETVTITCRASGNIHNYLAWYQQKQGKSPQLLVYNAKTLADGVPSRFSGSGSGTQYSLKINSLQPEDFGSYYCQHFWSTPRTFGGGTKLEIKRTVAAPSVFIFPPSDEQLKSGTASVVCLLNNFYPREAKVQWKVDNALQSGNSQESVTEQDSKDSTYSLSSTLTLSKADYEKHKVYACEVTHQGLSSPVTKSFNRGEC
B1 was tested, and the “Emax (pg/ml), mIFN-γ release, OT-1 CD8+ T cell activation assay (EC50 n/a)” value [1] was 3850 pg/mL.

B2: FS22-172-003-AA/HeID1.3 (bispecific antibody, human IgG1, kappa, L234A L235A)
heavy: QVQLQESGPGLVRPSQTLSLTCTVSGSTFSGYGVNWVRQPPGRGLEWIGMIWGDGNTDYNSALKSRVTMLVDTSKNQFSLRLSSVTAADTAVYYCARERDYRLDYWGQGSLVTVSSASTKGPSVFPLAPSSKSTSGGTAALGCLVKDYFPEPVTVSWNSGALTSGVHTFPAVLQSSGLYSLSSVVTVPSSSLGTQTYICNVNHKPSNTKVDKKVEPKSCDKTHTCPPCPAPEAAGGPSVFLFPPKPKDTLMISRTPEVTCVVVDVSHEDPEVKFNWYVDGVEVHNAKTKPREEQYNSTYRVVSVLTVLHQDWLNGKEYKCKVSNKALPAPIEKTISKAKGQPREPQVYTLPPSRDELPYIIPPYNQVSLTCLVKGFYPSDIAVEWESNGQPENNYKTTPPVLDSDGSFFLYSKLTVGADRWLEGNVFSCSVMHEALHNHYTQKSLSLSPG
light: B1 light
notes: mock mAb^2 with LALA
With B2 the “Emax (pg/ml), IFN-γ release, human MLR (EC50 N/A)” value [2] was 3570 pg/mL, the EC50 [3] was 9.09 nM and the EC50 [4] was 6.25 nM.

B3: G1/280_02_G02 (antibody, human IgG1, V domains shown)
VH: EVQLVQSGAEVKRPGASVKVSCKASGYTFTSYGISWVRQAPGQGLEWMGWISAYNGNTNYAQKLQGRVTMTTDTSTSTAYMELRSLRSDDTAVYYCARDLFPTIFGVSYYYYWGQGTLVTVSS
VL: QSALTQPASVSGSPGQSITISCTGTSSDVGGYNSVSWYQQFPGKAPKLMIFEVTNRPSGVSDRFSGSKSDNTASLTISGLQAEDEAEYYCSSFKRGSTLVVFG
For B3, the “EC50, luciferase, Jurkat-NFAT PD-1 / PD-L1 cell co-culture assay” value [5] was 4.2 nM.

B4: G1/929_01_A02 (antibody, IgG1, V domains shown)
VH: B3 VH with N55S, N57G
VL: DIQMTQSPSTLSASVRDRVIITCRASQSIGNRLAWYQHKPGKAPKLLIYEASTSETGVPSRFSGSGSGTDFTLTISSLQPEDFATYYCQQSYSTPYTFGQGTKLEIK
notes: IgG1 without LALA
With B4 the “fold lower affinity than G1-AA/E12v2” value (hPD-L1-rCD4-His [6]) was greater than 10 fold and the “fold lower affinity than G1-AA/E12v2” value (Cyno PD-L1-rCD4-His) was greater than 10 fold.

B5: G1/929_01_A11 (antibody, IgG1, V domains shown)
VH: B3 VH with N55S, N57G
VL: DIQMTQSPSTLSASVGDRVTITCRASQSISGRLAWYQQKPGKAPNLLIYEASNLESGVPSRFSGSGSGTEFTLTISSLQPEDFATYYCQQSYSWPRTFGQGTKVEIK
notes: IgG1 without LALA
B5: binds (hPD-L1-rCD4-His [7]).

B6: G1/929_01_A08 (antibody, IgG1, V domains shown)
VH: B3 VH with N55S, N57G
VL: DIQMTQSPSTLSASVGDRVTITCRASQSISGRLAWYQQKPGKAPNLLIYEASNLESGVPSRFSGSGSGTEFTLTISSLQPEDFATYYCQQSYSTPRVTFGQGTKVEIK
notes: IgG1 without LALA; SGGT variant of G1/894_08_E05, became G1-AA/E05v2 with LALA
B6: binds (hPD-L1-rCD4-His [7]).

B7: G1/4420 (antibody, human IgG1, kappa)
heavy: not shown
light: DVVMTQTPLSLPVSLGDQASISCRSSQSLVHSNGNTYLRWYLQKPGQSPKVLIYKVSNRFSGVPDRFSGSGSGTDFTLKISRVEAEDLGVYFCSQSTHVPWTFGGGTKLEIKRTVAAPSVFIFPPSDEQLKSGTASVVCLLNNFYPREAKVQWKVDNALQSGNSQESVTEQDSKDSTYSLSSTLTLSKADYEKHKVYACEVTHQGLSSPVTKSFNRGEC
B7: binds (FcgRIIB on CHO cells); binds [8]; binds [9]. B7: binds [10].
